Test results taken from patent US20160280792A1 (Kyowa Kirin, published 2016).

Assays:
[1] = target: T1, IL-3Rα/GM-CSFRα chimeric protein, region 1 (55-DADYSMP-61) of IL-3Rα replaced by GM-CSFRα sequence, on … (human, UniProt P26951 19-378); experiment: flow cytometry, labelled antibody at 1 µg/ml, HEK293T cells expressing the construct
T1 construct: Built on IL-3RA-FLAG/pEGFP-N1; they are my translation of the primers; also called Region 1 (A)
T1 chain: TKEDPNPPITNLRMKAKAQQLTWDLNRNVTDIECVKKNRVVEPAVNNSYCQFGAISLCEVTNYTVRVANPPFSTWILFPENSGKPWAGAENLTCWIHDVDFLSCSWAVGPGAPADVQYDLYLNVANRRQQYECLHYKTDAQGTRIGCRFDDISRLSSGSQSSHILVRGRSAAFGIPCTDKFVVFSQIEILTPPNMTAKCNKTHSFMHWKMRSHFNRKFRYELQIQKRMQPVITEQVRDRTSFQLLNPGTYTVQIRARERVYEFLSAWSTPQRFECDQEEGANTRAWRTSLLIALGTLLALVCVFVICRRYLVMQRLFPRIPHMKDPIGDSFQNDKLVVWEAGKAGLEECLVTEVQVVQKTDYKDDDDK

[2] = target: T2, IL-3Rα/GM-CSFRα chimeric protein, A domain of IL-3Rα replaced by that of GM-CSFRα, on HEK293T cells (human, UniProt P15509 23-114); experiment: as above
T2 construct: domain: A domain; The KpnI site (GGTACC) at the junction encodes an extra Gly-Thr; also called A domain substitution
T2 sequence: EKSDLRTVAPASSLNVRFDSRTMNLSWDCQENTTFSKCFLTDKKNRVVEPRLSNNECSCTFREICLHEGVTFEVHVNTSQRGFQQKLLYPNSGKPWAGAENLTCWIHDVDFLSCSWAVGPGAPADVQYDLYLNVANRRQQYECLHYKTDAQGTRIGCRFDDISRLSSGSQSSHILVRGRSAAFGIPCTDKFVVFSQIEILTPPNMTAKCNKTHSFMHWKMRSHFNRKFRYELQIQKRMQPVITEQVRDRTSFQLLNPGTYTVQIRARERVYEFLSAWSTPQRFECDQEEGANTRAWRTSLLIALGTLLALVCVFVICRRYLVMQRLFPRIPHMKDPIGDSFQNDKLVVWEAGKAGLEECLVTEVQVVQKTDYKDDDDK
Procedure: HEK293T cell (ATCC CRL 1268) was used for the preparation of the IL-3Rα/GM-CSFRα chimeric protein expression cell. Using 293Fectin (Invitrogen), the plasmid DNA obtained in the above was introduced as an expression vector into the HEK293T. The HEK293T to which the expression vector was introduced was cultured using a shaker under conditions of 5% CO₂ and 37° C. after 2 days of the introduction, the […] was used for in the flow cytometry analysis.
From 100,000 to 1,000,000 cells of the chimeric protein expression cell were allowed to react for 30 minutes on ice with at a concentration of 1 μg/ml with an AlexaFlour488-labeled human antibody or a commercially available FITC-labeled anti-IL-3Rα mouse antibody (7G3 or 9F5: both from BD Biosciences, 6H6: Acris Antibodies, AC145: Milteny Biotech, 107D2.08: Dendritics). A staining medium (Dulbecco's PBS supplemented with 2% fetal bovine serum, 2 mM EDTA and 0.05% NaN₃) was used for the dilution of antibodies and cells. Next, the cells reacted with antibodies were washed three times with the staining medium and whether the labeled antibody bound to the cell was confirmed by flow cytometry.

[3] = target: T3, soluble form of human IL-3Rα protein (extracellular region with C-terminal FLAG tag) (human, UniProt P26951 19-305); experiment: SPR (Biacore 2000): antibody captured on anti-mouse antibody CM5 chip, soluble IL-3Rα as analyte, 1:1 Langmuir fit
T3 construct: Made in CHOras1 cells, purified on anti-FLAG gel; also called soluble form of IL-3Rα protein; soluble form of human IL-3Rα extracellular region
T3 sequence: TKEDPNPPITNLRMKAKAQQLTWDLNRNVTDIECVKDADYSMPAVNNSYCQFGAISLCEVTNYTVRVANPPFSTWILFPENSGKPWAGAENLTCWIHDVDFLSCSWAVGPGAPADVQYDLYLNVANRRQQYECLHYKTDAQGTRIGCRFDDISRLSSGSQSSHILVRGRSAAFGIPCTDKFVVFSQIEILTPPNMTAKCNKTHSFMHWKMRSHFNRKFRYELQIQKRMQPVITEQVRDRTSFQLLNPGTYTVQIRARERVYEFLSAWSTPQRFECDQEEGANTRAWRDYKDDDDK
Procedure: Specifically, CM5 (research grade) was used for a sensor tip (each GE). Firstly, the CM5 tip was activated by applying an equivalent mixture of 400 mM EDC (N-ethyl-N′-(3-dimethylaminopropyl)carbodiimidehydrochloride) and 100 mM NHS (N-hydroxysuccinimide) to the CM5 tip. Next, an antibody to the human antibody attached to the Human Antibody Capture Kit (GE) (hereinafter, referred to as anti-human antibody antibody) was diluted with the solution attached to the kit and applied thereto, thereby immobilizing the required amount of the anti-human antibody antibody to the CM5 tip. Regarding the mouse antibody to be used as a control, an antibody to the mouse antibody attached to the Mouse Antibody Capture Kit (GE) (hereinafter, referred to as anti-mouse antibody antibody) was diluted with the solution attached to the kit and applied thereto, thereby immobilizing a necessary amount thereof to the CM5 tip. […]
In the analysis, Biaevaluation software (GE) was used and Biaevaluation Software Handbook was referred. Specifically, by carrying out simultaneous analysis of kinetics analysis, employing basically the 1:1 Langmuir binding reaction model and fitting, association rate constant (Ka) and dissociation rate constant (Kd) were calculated, and the value of dissociation constant KD was calculated by the calculation of Kd/Ka.

B1: anti-human IL-3Rα mouse antibody 7G3 (antibody, V domains shown)
VH: EVQLQQSGPELVKPGASVKMSCKASGYTFTDYYMKWVKQSHGKSLEWIGDIIPSNGATFYNQKFKGKATLTVDRSSSTAYMHLNSLTSEDSAVYYCTRSHLLRASWFAYWGQGTLVTVSA
VL: DFVMTQSPSSLTVTAGEKVTMSCKSSQSLLNSGNQKNYLTWYLQKPGQPPKLLIYWASTRESGVPDRFTGSGSGTDFTLTISSVQAEDLAVYYCQNDYSYPYTFGGGTKLEIK
notes: Mouse antibody; the material used in flow cytometry was bought (BD Biosciences, FITC-labelled); Light chain start see note of m7; also called 7G3 (Mouse antibodies); FITC-labeled 7G3 (BD Biosciences)
binding result [1]: no binding (tested: 1 µg/ml)
binding result [2]: no binding (tested: 1 µg/ml)
Kd [3]: 0.566 nM
